Test results published in IntAct's records for PubMed 14673118.

B1: Thioredoxin (Synechocystis sp. (strain PCC 6803 / Kazusa)), P52231 (parent)
chain: MSATPQVSDASFKEDVLDSELPVLVDFWAPWCGPCRMVAPVVDEISQQYEGKVKVVKLNTDENPNTASQYGIRSIPTLMIFKGGQRVDMVVGAVPKTTLASTLEKYL
partner: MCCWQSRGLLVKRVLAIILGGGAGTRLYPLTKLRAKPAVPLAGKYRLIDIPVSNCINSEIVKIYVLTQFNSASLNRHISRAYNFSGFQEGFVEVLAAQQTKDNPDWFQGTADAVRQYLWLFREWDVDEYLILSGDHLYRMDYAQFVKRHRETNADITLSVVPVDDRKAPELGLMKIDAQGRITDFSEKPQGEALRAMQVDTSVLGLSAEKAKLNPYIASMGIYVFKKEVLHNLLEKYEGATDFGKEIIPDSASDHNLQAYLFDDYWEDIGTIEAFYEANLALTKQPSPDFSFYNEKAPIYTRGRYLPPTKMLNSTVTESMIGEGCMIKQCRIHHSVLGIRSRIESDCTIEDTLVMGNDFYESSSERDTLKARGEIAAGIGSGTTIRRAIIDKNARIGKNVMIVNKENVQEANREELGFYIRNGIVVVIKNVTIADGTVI
B2: Thioredoxin (Synechocystis sp. (strain PCC 6803 / Kazusa)), P52231 (parent)
chain: B1 chain
partner: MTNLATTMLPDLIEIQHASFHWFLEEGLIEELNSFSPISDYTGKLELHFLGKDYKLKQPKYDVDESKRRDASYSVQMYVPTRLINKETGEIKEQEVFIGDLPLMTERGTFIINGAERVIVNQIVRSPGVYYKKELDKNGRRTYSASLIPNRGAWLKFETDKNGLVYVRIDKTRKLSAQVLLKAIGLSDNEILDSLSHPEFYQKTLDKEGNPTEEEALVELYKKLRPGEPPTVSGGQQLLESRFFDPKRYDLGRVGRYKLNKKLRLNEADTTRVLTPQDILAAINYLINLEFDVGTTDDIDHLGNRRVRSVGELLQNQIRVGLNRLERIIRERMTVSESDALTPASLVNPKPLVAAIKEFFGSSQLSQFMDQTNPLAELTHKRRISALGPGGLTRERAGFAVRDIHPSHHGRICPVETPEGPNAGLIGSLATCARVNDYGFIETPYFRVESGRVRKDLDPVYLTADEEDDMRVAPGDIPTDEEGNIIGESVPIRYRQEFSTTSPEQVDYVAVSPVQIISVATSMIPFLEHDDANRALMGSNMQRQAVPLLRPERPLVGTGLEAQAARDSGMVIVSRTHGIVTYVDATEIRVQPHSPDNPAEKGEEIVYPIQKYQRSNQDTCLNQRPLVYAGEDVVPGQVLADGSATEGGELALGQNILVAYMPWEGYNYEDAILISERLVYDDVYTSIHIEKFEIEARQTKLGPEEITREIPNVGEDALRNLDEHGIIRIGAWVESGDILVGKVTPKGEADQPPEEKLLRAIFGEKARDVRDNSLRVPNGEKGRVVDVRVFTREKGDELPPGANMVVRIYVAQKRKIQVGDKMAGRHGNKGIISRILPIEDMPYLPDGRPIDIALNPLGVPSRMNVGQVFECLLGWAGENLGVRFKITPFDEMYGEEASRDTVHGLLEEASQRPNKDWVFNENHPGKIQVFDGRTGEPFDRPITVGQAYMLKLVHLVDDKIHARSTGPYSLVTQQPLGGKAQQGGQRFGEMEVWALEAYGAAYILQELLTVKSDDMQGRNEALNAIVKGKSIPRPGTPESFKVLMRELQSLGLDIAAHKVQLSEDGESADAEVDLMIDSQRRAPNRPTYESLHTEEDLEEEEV
B3: Thioredoxin (Synechocystis sp. (strain PCC 6803 / Kazusa)), P52231 (parent)
chain: B1 chain
partner: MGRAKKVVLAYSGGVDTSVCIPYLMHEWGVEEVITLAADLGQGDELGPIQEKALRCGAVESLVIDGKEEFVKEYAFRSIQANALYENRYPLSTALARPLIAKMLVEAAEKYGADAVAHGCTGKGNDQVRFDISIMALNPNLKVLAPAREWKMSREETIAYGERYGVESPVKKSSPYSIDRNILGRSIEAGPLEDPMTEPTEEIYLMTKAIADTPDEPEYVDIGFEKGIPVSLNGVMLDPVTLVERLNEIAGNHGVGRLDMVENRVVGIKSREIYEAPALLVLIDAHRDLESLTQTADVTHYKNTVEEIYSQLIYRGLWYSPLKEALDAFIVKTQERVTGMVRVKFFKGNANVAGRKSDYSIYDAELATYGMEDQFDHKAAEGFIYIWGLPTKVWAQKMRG
B4: Thioredoxin (Synechocystis sp. (strain PCC 6803 / Kazusa)), P52231 (parent)
chain: B1 chain
partner: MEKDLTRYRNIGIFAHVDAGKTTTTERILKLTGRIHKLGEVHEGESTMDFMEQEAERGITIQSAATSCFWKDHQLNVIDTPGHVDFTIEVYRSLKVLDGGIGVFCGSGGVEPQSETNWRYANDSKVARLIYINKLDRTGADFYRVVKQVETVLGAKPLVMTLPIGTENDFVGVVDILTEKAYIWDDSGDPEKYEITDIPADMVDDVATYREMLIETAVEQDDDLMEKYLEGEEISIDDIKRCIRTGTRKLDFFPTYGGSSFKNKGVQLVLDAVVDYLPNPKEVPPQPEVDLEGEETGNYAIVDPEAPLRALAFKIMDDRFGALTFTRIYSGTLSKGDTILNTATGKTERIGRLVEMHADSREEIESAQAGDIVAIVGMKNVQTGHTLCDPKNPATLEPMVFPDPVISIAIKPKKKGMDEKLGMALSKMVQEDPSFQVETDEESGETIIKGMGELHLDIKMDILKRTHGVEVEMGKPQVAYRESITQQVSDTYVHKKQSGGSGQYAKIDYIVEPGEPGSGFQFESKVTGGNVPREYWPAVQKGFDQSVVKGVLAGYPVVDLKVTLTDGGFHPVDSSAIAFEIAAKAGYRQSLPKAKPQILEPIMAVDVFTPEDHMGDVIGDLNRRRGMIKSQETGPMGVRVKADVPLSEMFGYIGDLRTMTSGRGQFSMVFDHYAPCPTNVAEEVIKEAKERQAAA
B5: Thioredoxin (Synechocystis sp. (strain PCC 6803 / Kazusa)), P52231 (parent)
chain: B1 chain
partner: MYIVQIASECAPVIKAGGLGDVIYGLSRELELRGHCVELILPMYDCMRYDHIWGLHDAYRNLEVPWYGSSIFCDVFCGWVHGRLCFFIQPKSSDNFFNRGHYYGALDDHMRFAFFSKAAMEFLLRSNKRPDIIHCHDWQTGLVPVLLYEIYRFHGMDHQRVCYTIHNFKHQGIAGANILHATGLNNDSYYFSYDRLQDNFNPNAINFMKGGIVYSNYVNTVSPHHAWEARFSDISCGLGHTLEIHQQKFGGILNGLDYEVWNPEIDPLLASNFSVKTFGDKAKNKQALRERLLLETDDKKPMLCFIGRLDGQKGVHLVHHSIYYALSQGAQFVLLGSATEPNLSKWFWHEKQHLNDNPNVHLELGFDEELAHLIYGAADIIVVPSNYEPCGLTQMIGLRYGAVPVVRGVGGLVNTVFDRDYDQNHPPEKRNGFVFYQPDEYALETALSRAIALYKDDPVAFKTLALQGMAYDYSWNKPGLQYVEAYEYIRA
B6: Thioredoxin (Synechocystis sp. (strain PCC 6803 / Kazusa)), P52231 (parent)
chain: B1 chain
partner: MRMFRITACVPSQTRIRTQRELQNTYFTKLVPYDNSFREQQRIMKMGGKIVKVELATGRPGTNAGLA
B7: Thioredoxin (Synechocystis sp. (strain PCC 6803 / Kazusa)), P52231 (parent)
chain: B1 chain
partner: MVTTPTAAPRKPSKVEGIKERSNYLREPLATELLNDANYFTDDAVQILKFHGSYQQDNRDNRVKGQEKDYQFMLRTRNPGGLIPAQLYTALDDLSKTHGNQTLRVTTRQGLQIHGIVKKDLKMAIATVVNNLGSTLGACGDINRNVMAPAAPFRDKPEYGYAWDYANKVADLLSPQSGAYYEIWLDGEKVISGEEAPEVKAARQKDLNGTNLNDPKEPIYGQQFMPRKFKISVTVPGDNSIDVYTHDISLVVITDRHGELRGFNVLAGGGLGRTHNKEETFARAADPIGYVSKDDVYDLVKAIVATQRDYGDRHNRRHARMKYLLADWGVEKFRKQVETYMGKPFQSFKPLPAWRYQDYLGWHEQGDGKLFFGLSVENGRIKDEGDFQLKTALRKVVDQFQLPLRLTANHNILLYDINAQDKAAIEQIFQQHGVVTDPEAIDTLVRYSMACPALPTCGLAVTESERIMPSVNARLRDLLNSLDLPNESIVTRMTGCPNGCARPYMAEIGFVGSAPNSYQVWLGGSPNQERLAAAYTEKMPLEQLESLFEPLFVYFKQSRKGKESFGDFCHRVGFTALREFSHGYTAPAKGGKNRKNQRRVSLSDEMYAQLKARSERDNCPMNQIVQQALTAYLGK
B8: Thioredoxin (Synechocystis sp. (strain PCC 6803 / Kazusa)), P52231 (parent)
chain: B1 chain
partner: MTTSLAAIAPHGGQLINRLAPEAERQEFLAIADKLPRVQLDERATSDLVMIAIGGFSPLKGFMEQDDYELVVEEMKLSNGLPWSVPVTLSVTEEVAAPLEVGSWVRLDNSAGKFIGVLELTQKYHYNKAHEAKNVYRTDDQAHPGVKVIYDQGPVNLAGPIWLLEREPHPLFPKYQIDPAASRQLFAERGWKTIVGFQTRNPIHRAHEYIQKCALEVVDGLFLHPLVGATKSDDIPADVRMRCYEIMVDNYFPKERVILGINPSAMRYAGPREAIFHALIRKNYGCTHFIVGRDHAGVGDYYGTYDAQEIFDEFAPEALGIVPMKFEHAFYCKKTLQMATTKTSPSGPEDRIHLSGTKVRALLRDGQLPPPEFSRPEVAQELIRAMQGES
B9: Thioredoxin (Synechocystis sp. (strain PCC 6803 / Kazusa)), P52231 (parent)
chain: B1 chain
partner: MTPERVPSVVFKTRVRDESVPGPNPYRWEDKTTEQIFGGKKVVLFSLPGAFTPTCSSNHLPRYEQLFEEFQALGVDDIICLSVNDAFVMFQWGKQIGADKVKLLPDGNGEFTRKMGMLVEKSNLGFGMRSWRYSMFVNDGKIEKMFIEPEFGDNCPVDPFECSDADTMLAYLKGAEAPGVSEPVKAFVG
B10: Thioredoxin (Synechocystis sp. (strain PCC 6803 / Kazusa)), P52231 (parent)
chain: B1 chain
partner: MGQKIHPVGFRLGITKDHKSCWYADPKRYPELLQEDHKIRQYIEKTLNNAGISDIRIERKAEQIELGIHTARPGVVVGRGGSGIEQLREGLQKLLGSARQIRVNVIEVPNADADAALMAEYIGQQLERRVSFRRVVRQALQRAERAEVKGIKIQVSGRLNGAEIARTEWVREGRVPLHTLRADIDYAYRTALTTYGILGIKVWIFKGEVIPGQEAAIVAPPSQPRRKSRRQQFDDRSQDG

Variants of: B1
Details: with glgc_syny3 glgC

effect of a mutation on the interaction | Variant
increasing interaction | MSATPQVSDASFKEDVLDSELPVLVDFWAPWCGPSRMVAPVVDEISQQYEGKVKVVKLNTDENPNTASQYGIRSIPTLMIFKGGQRVDMVVGAVPKTTLASTLEKYL [C35S]

Variants of: B2
Details: with rpob_syny3 rpoB

effect of a mutation on the interaction | Variant
increasing interaction | MSATPQVSDASFKEDVLDSELPVLVDFWAPWCGPSRMVAPVVDEISQQYEGKVKVVKLNTDENPNTASQYGIRSIPTLMIFKGGQRVDMVVGAVPKTTLASTLEKYL [C35S]

Variants of: B3
Details: with assy_syny3 argG

effect of a mutation on the interaction | Variant
increasing interaction | MSATPQVSDASFKEDVLDSELPVLVDFWAPWCGPSRMVAPVVDEISQQYEGKVKVVKLNTDENPNTASQYGIRSIPTLMIFKGGQRVDMVVGAVPKTTLASTLEKYL [C35S]

Variants of: B4
Details: with efg1_syny3 fusA

effect of a mutation on the interaction | Variant
increasing interaction | MSATPQVSDASFKEDVLDSELPVLVDFWAPWCGPSRMVAPVVDEISQQYEGKVKVVKLNTDENPNTASQYGIRSIPTLMIFKGGQRVDMVVGAVPKTTLASTLEKYL [C35S]

Variants of: B5
Details: with glga2_syny3 glgA2, P72623

effect of a mutation on the interaction | Variant
increasing interaction | MSATPQVSDASFKEDVLDSELPVLVDFWAPWCGPSRMVAPVVDEISQQYEGKVKVVKLNTDENPNTASQYGIRSIPTLMIFKGGQRVDMVVGAVPKTTLASTLEKYL [C35S]

Variants of: B6
Details: with pyc1_syny3 apcC

effect of a mutation on the interaction | Variant
increasing interaction | MSATPQVSDASFKEDVLDSELPVLVDFWAPWCGPSRMVAPVVDEISQQYEGKVKVVKLNTDENPNTASQYGIRSIPTLMIFKGGQRVDMVVGAVPKTTLASTLEKYL [C35S]

Variants of: B7
Details: with sir_syny3 sir

effect of a mutation on the interaction | Variant
increasing interaction | MSATPQVSDASFKEDVLDSELPVLVDFWAPWCGPSRMVAPVVDEISQQYEGKVKVVKLNTDENPNTASQYGIRSIPTLMIFKGGQRVDMVVGAVPKTTLASTLEKYL [C35S]

Variants of: B8
Details: with sat_syny3 sat

effect of a mutation on the interaction | Variant
increasing interaction | MSATPQVSDASFKEDVLDSELPVLVDFWAPWCGPSRMVAPVVDEISQQYEGKVKVVKLNTDENPNTASQYGIRSIPTLMIFKGGQRVDMVVGAVPKTTLASTLEKYL [C35S]

Variants of: B9
Details: with prx5_syny3 prx5, P73728

effect of a mutation on the interaction | Variant
increasing interaction | MSATPQVSDASFKEDVLDSELPVLVDFWAPWCGPSRMVAPVVDEISQQYEGKVKVVKLNTDENPNTASQYGIRSIPTLMIFKGGQRVDMVVGAVPKTTLASTLEKYL [C35S]

Variants of: B10
Details: with rs3_syny3 rpsC

effect of a mutation on the interaction | Variant
increasing interaction | MSATPQVSDASFKEDVLDSELPVLVDFWAPWCGPSRMVAPVVDEISQQYEGKVKVVKLNTDENPNTASQYGIRSIPTLMIFKGGQRVDMVVGAVPKTTLASTLEKYL [C35S]
